# Measured values: IntAct's records for PubMed 16099979
# B1: Protein FD (Arabidopsis thaliana (Mouse-ear cress)), Q84JK2 (parent)
# chain: MLSSAKHQRNHRLSATNKNQTLTKVSSISSSSPSSSSSSSSTSSSSPLPSQDSQAQKRSLVTMEEVWNDINLASIHHLNRHSPHPQHNHEPRFRGQNHHNQNPNSIFQDFLKGSLNQEPAPTSQTTGSAPNGDSTTVTVLYSSPFPPPATVLSLNSGAGFEFLDNQDPLVTSNSNLHTHHHLSNAHAFNTSFEALVPSSSFGKKRGQDSNEGSGNRRHKRMIKNRESAARSRARKQAYTNELELEVAHLQAENARLKRQQDQLKMAAAIQQPKKNTLQRSSTAPF
# Variants of: B1
# Conditions: with ft_arath FT
row,Variant,effect of a mutation on the interaction
1,MLSSAKHQRNHRLSATNKNQTLTKVSSISSSSPSSSSSSSSTSSSSPLPSQDSQAQKRSLVTMEEVWNDINLASIHHLNRHSPHPQHNHEPRFRGQNHHNQNPNSIFQDFLKGSLNQEPAPTSQTTGSAPNGDSTTVTVLYSSPFPPPATVLSLNSGAGFEFLDNQDPLVTSNSNLHTHHHLSNAHAFNTSFEALVPSSSFGKKRGQDSNEGSGNRRHKRMIKNRESAARSRARKQAYTNELELEVAHLQAENARLKRQQDQLKMAAAIQQPKKNTLQRSSAAPF [T282A],decreasing interaction
2,MLSSAKHQRNHRLSATNKNQTLTKVSSISSSSPSSSSSSSSTSSSSPLPSQDSQAQKRSLVTMEEVWNDINLASIHHLNRHSPHPQHNHEPRFRGQNHHNQNPNSIFQDFLKGSLNQEPAPTSQTTGSAPNGDSTTVTVLYSSPFPPPATVLSLNSGAGFEFLDNQDPLVTSNSNLHTHHHLSNAHAFNTSFEALVPSSSFGKKRGQDSNEGSGNRRHKRMIKNRESAARSRARKQAYTNELELEVAHLQAENARLKRQQDQLKMAAAIQQPKKNTLQRSSSAPF [T282S],decreasing interaction
